Reference: PMC6042069
Where two headings read alike, the source gives them in different places.

Columns and labels:
Assay in all cases: EMSA
[1] = target: T1, PPARγ2;RXRα (mouse;human, UniProt P37238;P19793 1-505;1-462, |)
[2] = target: T1, PPARγ2;RXRα; remark: listed apart in the source
[3] = target: T1, PPARγ2;RXRα; remark: listed apart in the source

B1: LepRE1 DR1 (GOF) (dsDNA)
DNA 1: AAGATTTGAACTTTGAACTGAATTGGCTGCAGC
DNA 2: GCTGCAGCCAATTCAGTTCAAAGTTCAAATCTT
binding result [1]: binds

B2: LepRE1 LOF (dsDNA)
DNA 1: AAGATTTGAAATTTCCGCAGAATTGGCTGCAGC
DNA 2: GCTGCAGCCAATTCTGCGGAAATTTCAAATCTT
binding result [2]: no binding

B3: LepRE1 EXT (dsDNA)
DNA 1: AAGATTTGAACTTTCCGCAGGATTGGCTGCAGC
DNA 2: GCTGCAGCCAATCCTGCGGAAAGTTCAAATCTT
binding result [3]: binds
